Measured values from publication PMC5531539 (PLoS ONE, 2017).
Changes are numbered by the printed parent chain.

B1: bH1 Fab (parent) (Fab, V domains shown)
VH: not shown
VL: DIQMTQSPSSLSASVGDRVTITCRASQDIPRSISGYVAWYQQKPGKAPKLLIYWGSYLYSGVPSRFSGSGSGTDFTLTISSLQPEDFATYYCQQHYTTPPTFGQGTKVEIK
notes: Fab heavy chain of bH1; numbers count on: Bostrom et al. [8]; Fab light chain of bH1; also called WT; source: CHO-3E7, co-transfected, His-tag purified
B2: bH1 Fab HD98W HY33W HG99D (Fab, V domains shown)
VH: EVQLVESGGGLVQPGGSLRLSCAASGFNIKDTWIHWVRQAPGKGLEWVARIYPTNGYTRYADSVKGRFTISADTSKNTAYLQMNSLRAEDTAVYYCSRWGGWDFYAMDYWGQGTLVTVSS
VL: B1 VL
notes: as the heavy chain of m4 with the stated changes; numbers count on: Bostrom et al. [8]; as the light chain of m4; also called best triple mutant (bH1-VEGF); source: CHO-3E7, co-transfected, His-tag purified
B3: bH1 Fab HD98W HY33W HG99M (Fab, V domains shown)
VH: B2 VH with D103M
VL: B1 VL
notes: as the heavy chain of m4 with the stated changes; numbers count on: Bostrom et al. [8]; as the light chain of m4; source: CHO-3E7, co-transfected, His-tag purified
B4: bH1 Fab HD98Y HD31K LI29K (Fab, V domains shown)
VH: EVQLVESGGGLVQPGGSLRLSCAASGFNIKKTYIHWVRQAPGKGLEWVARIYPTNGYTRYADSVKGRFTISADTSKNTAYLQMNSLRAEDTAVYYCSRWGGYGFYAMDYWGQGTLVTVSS
VL: B1 VL with I29K
notes: as the heavy chain of m4 with the stated changes; numbers count on: Bostrom et al. [8]; as the light chain of m4 with the stated change; source: CHO-3E7, co-transfected, His-tag purified
B5: bH1 Fab HD98F HD31K LI29K (Fab, V domains shown)
VH: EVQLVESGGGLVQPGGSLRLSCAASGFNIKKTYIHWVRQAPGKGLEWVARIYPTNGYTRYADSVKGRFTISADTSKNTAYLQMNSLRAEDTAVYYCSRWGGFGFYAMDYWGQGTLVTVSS
VL: B1 VL with I29K
notes: as for B4
B6: bH1 Fab HD98K HD31K LI29K (Fab, V domains shown)
VH: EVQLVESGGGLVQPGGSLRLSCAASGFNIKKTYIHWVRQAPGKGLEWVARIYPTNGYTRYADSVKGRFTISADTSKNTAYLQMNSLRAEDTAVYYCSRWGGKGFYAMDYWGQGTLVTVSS
VL: B1 VL with I29K
notes: as for B4
B7: bH1 Fab HD98Y HD31K LI29R (Fab, V domains shown)
VH: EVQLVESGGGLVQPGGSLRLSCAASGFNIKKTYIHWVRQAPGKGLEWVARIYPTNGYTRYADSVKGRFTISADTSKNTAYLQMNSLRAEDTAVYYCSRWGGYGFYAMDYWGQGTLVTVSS
VL: B1 VL with I29R
notes: as the heavy chain of m4 with the stated changes; numbers count on: Bostrom et al. [8]; as the light chain of m4 with the stated change; also called best triple mutant (bH1-HER2); source: CHO-3E7, co-transfected, His-tag purified
B8: bH1 Fab HD98F HD31K LI29R (Fab, V domains shown)
VH: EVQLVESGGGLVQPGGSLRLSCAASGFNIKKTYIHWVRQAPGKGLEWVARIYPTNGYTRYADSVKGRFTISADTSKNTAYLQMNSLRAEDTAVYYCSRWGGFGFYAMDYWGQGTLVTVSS
VL: B1 VL with I29R
notes: as for B4
B9: bH1 Fab HD98K HD31K LI29R (Fab, V domains shown)
VH: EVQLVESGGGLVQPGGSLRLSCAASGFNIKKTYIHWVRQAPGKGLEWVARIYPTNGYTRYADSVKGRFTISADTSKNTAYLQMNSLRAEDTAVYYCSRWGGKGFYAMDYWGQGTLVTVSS
VL: B1 VL with I29R
notes: as for B4
B10: bH1 Fab LS30dL (Fab, V domains shown)
VH: not shown
VL: B1 VL with S34L
notes: as the heavy chain of Sm3; bH1 Fab light chain, parent as in Sm3; numbers count on: Bostrom et al; source: CHO-3E7, co-transfected, purified (His tag)
B11: bH1 Fab LS30dM (Fab, V domains shown)
VH: not shown
VL: B1 VL with S34M
notes: as for B10

Target: T1, Full-length isoform 165 of human VEGF-A (Homo sapiens, UniProt P15692-4, strain)
T1 construct: human vascular endothelial growth factor A, 165 amino acid isoform (VEGF165); also called VEGF165
Assay: SPR; BioRad ProteOn XPR36; HER2 or VEGF amine-coupled to a GLC chip (about 150 RU); Fab as analyte, 3-fold dilutions from 30, 60 or 120 nM; 25C; PBS, 0.05% Tween 20, 3.4 mM EDTA; 1:1 binding model, KD from koff/kon
Conditions: both partners purified
T1 sequence (P15692 whole entry, looked up, change not shown, canonical isoform): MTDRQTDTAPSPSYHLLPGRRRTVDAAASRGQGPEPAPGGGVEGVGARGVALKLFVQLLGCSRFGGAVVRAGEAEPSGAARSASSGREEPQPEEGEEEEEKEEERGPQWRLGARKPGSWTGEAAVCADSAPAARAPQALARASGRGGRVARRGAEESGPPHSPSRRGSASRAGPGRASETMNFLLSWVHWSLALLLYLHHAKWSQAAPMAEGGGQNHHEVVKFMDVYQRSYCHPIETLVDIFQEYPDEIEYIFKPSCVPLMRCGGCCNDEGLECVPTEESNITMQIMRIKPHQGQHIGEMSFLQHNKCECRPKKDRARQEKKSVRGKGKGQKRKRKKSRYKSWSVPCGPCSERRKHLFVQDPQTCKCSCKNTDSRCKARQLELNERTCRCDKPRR

Point of comparison: B3, Kd 1.2 ± 0.2 nM. Against it:
- B1 — 37-fold higher, 44 ± 17 nM
- B2 — 2.4-fold lower, 0.5 ± 0.1 nM

Point of comparison: B2, koff 7e-05 s⁻¹. Against it:
- B1 — 130-fold higher, 0.009 s⁻¹
- B3 — 4.9-fold higher, 0.00034 s⁻¹

Point of comparison: B2, kon 160000 M⁻¹ s⁻¹. Against it:
- B1 — within 1.5-fold, 220000 M⁻¹ s⁻¹
- B3 — 1.8-fold higher, 290000 M⁻¹ s⁻¹

Target: T2, Recombinant soluble human HER2 extracellular domain (Homo sapiens, UniProt P04626)
T2 construct: human HER2 (ErbB2), soluble extracellular domain; also called HER2 ectodomain; Receptor-tyrosine kinase ErbB2 soluble ectodomain; source: bought: eBioscience
Assay: as above
Conditions: both partners purified

Point of comparison: B1, Kd 3.6 ± 0.6 nM. Against it:
- B4 — 26-fold lower, 0.14 ± 0.09 nM
- B5 — 26-fold lower, 0.14 ± 0.05 nM
- B6 — 24-fold lower, 0.15 ± 0.05 nM
- B7 — 51-fold lower, 0.07 ± 0.01 nM
- B8 — 33-fold lower, 0.11 ± 0.02 nM
- B9 — 33-fold lower, 0.11 ± 0.02 nM

Point of comparison: B1, koff 0.0013 s⁻¹. Against it:
- B4 — 4.6-fold lower, 0.00028 s⁻¹
- B5 — 4.5-fold lower, 0.00029 s⁻¹
- B6 — 3.3-fold lower, 0.00039 s⁻¹
- B7 — 5.2-fold lower, 0.00025 s⁻¹
- B8 — 4.5-fold lower, 0.00029 s⁻¹
- B9 — 2.9-fold lower, 0.00045 s⁻¹

Point of comparison: B6, kon 2.3e+06 M⁻¹ s⁻¹. Against it:
- B1 — 6.2-fold lower, 370000 M⁻¹ s⁻¹
- B4 — within 1.5-fold, 2.2e+06 M⁻¹ s⁻¹
- B5 — within 1.5-fold, 2.2e+06 M⁻¹ s⁻¹
- B7 — 1.7-fold higher, 3.8e+06 M⁻¹ s⁻¹
- B8 — within 1.5-fold, 2.7e+06 M⁻¹ s⁻¹
- B9 — 1.9-fold higher, 4.4e+06 M⁻¹ s⁻¹

Target: T3, Full-length isoform 165 of human VEGF-A (Homo sapiens, UniProt P15692-4, strain)
T3 construct: vascular endothelial growth factor A, human, 165 amino acid isoform; also called VEGF165; source: produced recombinantly and purified
Assay: SPR; BioRad ProteOn XPR36, GLC chip; HER2 and VEGF amine-coupled (about 150 RU); Fab variants injected as analyte in 3-fold dilutions (top 30, 60 or 120 nM); 25C, PBS with 0.05% Tween 20 and 3.4 mM EDTA; 1:1 model; KWT/K uses the parent Fab's K of the same batch
Conditions: both partners purified
T3 sequence (P15692 whole entry, looked up, change not shown, canonical isoform): as above

B10: no binding.
B11: no binding.
